Results as given in article PMC3406060.

Tests used:
[1] = target: IRA homodimer (IRA-Luc/IRA-YFP) (UniProt P06213)
[2] = target: IRB/IGF1R hybrid receptor (IRB-Luc/IGF1R-YFP) (UniProt P06213)
[3] = target: IRA/IGF1R hybrid receptor (IRA-Luc/IGF1R-YFP) (UniProt P06213)
[4] = target: IRB homodimer (IRB-Luc/IRB-YFP) (UniProt P06213)
[5] = target: insulin receptor (IR), endogenous in MCF-7 and MDA-MB231 cells (human (endogenous in MCF-7 and MDA-MB231)) (UniProt P06213)
[6] = target: IRA homodimer (IRA-Luc/IRA-YFP) (UniProt P06213); remark: listed apart in the source
[7] = target: IRB/IGF1R hybrid receptor (IRB-Luc/IGF1R-YFP) (UniProt P06213); remark: listed apart in the source
[8] = target: IRA/IGF1R hybrid receptor (IRA-Luc/IGF1R-YFP) (UniProt P06213); remark: listed apart in the source
[9] = target: IRB homodimer (IRB-Luc/IRB-YFP) (UniProt P06213); remark: listed apart in the source

Substance | EC50 of ligand-induced BRET (Luc/YFP on the two ß-subunits) of partially purified receptors [1] [nM] | EC50 of ligand-induced BRET (Luc/YFP on the two ß-subunits) of partially purified receptors [2] [nM] | EC50 of ligand-induced BRET (Luc/YFP on the two ß-subunits) of partially purified receptors [3] [nM] | EC50 of ligand-induced BRET (Luc/YFP on the two ß-subunits) of partially purified receptors [4] [nM] | EC50 of PIP3 production (BRET, Luc-Akt-PH and membrane YFP) in living MDA-MB231 cells [5] [nM] | EC50 of ligand-induced BRET (Luc/YFP on the two ß-subunits) of partially purified receptors, series with M1 and M2 [6] [nM] | EC50 of ligand-induced BRET (Luc/YFP on the two ß-subunits) of partially purified receptors, series with M1 and M2 [7] [nM] | EC50 of ligand-induced BRET (Luc/YFP on the two ß-subunits) of partially purified receptors, series with M1 and M2 [8] [nM] | EC50 of ligand-induced BRET (Luc/YFP on the two ß-subunits) of partially purified receptors, series with M1 and M2 [9] [nM]
glulisine (B3Lys,B29Glu-insulin) (ligand) | 1.61 | 107 | 183 | 1.64 | 0.84 | – | – | – | –
detemir (B29Lys(e-tetradecanoyl),desB30)-insulin) (ligand) | 5.13 | 175 | 335 | 5.24 | 2.3 | – | – | – | –
Glargine metabolite M1 (A21Gly-insulin) (ligand) | – | – | – | – | – | 16.7 | 147 | 225 | 9.64
IGF1 (from UniProt P05019 49-118) (ligand) | 34.4 | 2.87 | 3.01 | 50 | – | 50.6 | 3.05 | 4.23 | 130
Glargine metabolite M2 (A21Gly,B30desThr-insulin) (ligand) | – | – | – | – | – | 13.8 | 169 | 315 | 6.31
